This passage reports AmyQ secretion efficiency results from the supplement of paper PMC9942255.

Where “and” joins values, the source holds several entries; their conditions need not be identical. Equal entries are not always repeated.

In this data set the test system is Bacillus subtilis DB104 (SP-AmyQ fusion secretion). In words: AmyQ secretion efficiency, weighted average sort bin (1 = best secretion, 10 = worst) (bin number (weighted average, 1-10)); higher = lower secretion efficiency. In a few lines:
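Secretion score gives the read-frequency-weighted average bin number, normalised to beads per bin, with low-abundance sequences left out. A B. subtilis DB104 library expressing mature AmyQ fused to designed signal peptides, integrated at amyE, was encapsulated with fluorescein-starch at about 0.3 cells per ~65 nL alginate bead. Beads were grown about 13 h at room temperature, stained with nile red, and the occupied ones were sorted by large-particle flow cytometry into 10 equally populated bins by green/red fluorescence ratio before the amplicons from each bin were Illumina-sequenced.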

MKKRRSLIMMTGLLFGLTSPAFAAEK returned an AmyQ secretion efficiency of 3.58.

The sequence MLCVMMLLFSAIASFPVSFTFPAFATAQAKDQ displayed an AmyQ secretion efficiency of 7.71.

Take MKKKKKRIITATTAVVLGSTLFAGAASAQSI: the AmyQ secretion efficiency amounted to 1.46.

Regarding MGLGKKLSVAVAASFMSLSISLSPGVQAAEG, the AmyQ secretion efficiency amounted to 1.19.

Consider MRSYIKVLTMCFLGLILFVPTTLADNS, for which the AmyQ secretion efficiency is 1.67.

In turn, MKKLLAAGIIGLLTVEEESPSFAAEK displayed an AmyQ secretion efficiency of 6.63.

Sequence MGRIKTKITILLVLLLLLAGPYMYIN came in with an AmyQ secretion efficiency of 7.19.

The sequence MTMLRKKTGWILLLCIIPLFAFTVIASGKEV registered an AmyQ secretion efficiency of 3.88.

Consider MKKIVSILFMFGLVMGFSQFQPSTVFAASP, for which the AmyQ secretion efficiency was found to be 1.65.

MGMKKKLSLGVASAALGLALVGGGTWCAFN yielded an AmyQ secretion efficiency of 4.28.

MKKRFFGPIILAFILFAGAIVIPS had an AmyQ secretion efficiency of 5.76.

MRHKIITFILAVVVIIIIGNMIGGGGGQEATSK registered an AmyQ secretion efficiency of 6.41.

MKRLLILLLIIIMLLGGTTFAPSAFAKQD showed an AmyQ secretion efficiency of 2.

MKSKWMSGLLLVAVGFSFTQVMVHAGTT gave an AmyQ secretion efficiency of 5.78.

With MRKNRILALFVLSLGLLRRKVTPVSAASK, the AmyQ secretion efficiency came out at 7.91.

As for MIVIILLFISIIVFLKRKKKKIQPQPS, the AmyQ secretion efficiency was 8.16.

Take MKKWLIIAVSLAIAIVLFMYTKGETKAAGM: the AmyQ secretion efficiency was found to be 3.24.

Sequence MRSYIKVLTMCFLGLILFVPTALAANR registered an AmyQ secretion efficiency of 2.08.

As for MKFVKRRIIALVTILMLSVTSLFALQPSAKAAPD, the AmyQ secretion efficiency was determined as 2.11.

Regarding MKKIVSILFMFGLVMRRKRKKPSTVFAADK, the AmyQ secretion efficiency stood at 7.34.

MKLKSKYKGGCYAAAAIFTAAGVSANAEALDF yielded an AmyQ secretion efficiency of 7.31.

In the case of MRKWYFILLAGVLTSVILAFVYDKTKANDD, the AmyQ secretion efficiency was 6.75.

MKTLRNMLSTLCVLMILSGVIFFGLKIDAKDI yielded an AmyQ secretion efficiency of 6.22.

In turn, MLCVMMLLFSAIASFPVSWQAKDQ displayed an AmyQ secretion efficiency of 6.99.

Regarding MKKRITYSLLALLAVVAFAFTDSSKTKAAEA, the AmyQ secretion efficiency stood at 4.

MLCVMMLLFSAIASFPVSSQAKDQ: the AmyQ secretion efficiency turned out to be 5.36.

MKKVLMAFIICLSLILSVLAAPPSGAKQESV: the AmyQ secretion efficiency was 2.57.

MKWMTNCSICCAAVLLAGGAAQAEAV: the AmyQ secretion efficiency worked out at 3.49.

Turning to MLTKRTTTSLLTIYIMLLGLIAWFPGAAQAEEK, the AmyQ secretion efficiency came out at 3.1.

MTTWIVLFLVLIAAAISIFVYVSTGSEK showed an AmyQ secretion efficiency of 8.09.

In the case of MNFKKTTSIVVSALSISALALSVSGVASAHEI, the AmyQ secretion efficiency worked out at 3.35.

With MRSYIKVLTMCFLGLILFVPTKDEPALADNS, the AmyQ secretion efficiency was 2.48.

The sequence MKKRLIAPMLLSAASLAFFAMSGSEQAAAY displayed an AmyQ secretion efficiency of 3.75.

MRKWYQYQGAGVLTSVILAFVYDKTKANEE: the AmyQ secretion efficiency is 8.25.

Sequence MKTKTLFIFSAILTFAPNETFAQTA showed an AmyQ secretion efficiency of 2.34.

MKLSVKIAGVLTVAAAAMEEKMYATAKGN came in with an AmyQ secretion efficiency of 7.66.

In turn, MMKQIITATTAVVLGSTLFAGAASAQSI came in with an AmyQ secretion efficiency of 2.49.

In the case of MAIIIAIIAAVIVIAALITFNVRNMSPG, the AmyQ secretion efficiency is 7.67.

MKNMSCKLVVSVTLFFSFLRKKKKKAHAQNS registered an AmyQ secretion efficiency of 6.96.

MKQIRKKRKKFMLLAMTGQTALAKDV yielded an AmyQ secretion efficiency of 7.04.

MKSCKQLIVCSLAAILLLDPQPSFAADS showed an AmyQ secretion efficiency of 4.16.

MPYLKRVLLLLVTGLFMSLFAVTATASYQTG: the AmyQ secretion efficiency turned out to be 1.77.

For the sequence MKLKKRVSMFLVALTMCGGLFVTPSFPPTAPAKAVKT, the AmyQ secretion efficiency was found to be 5.25.

MLKKKWMVGLLAGCLAAGKKKYNAFATEN registered an AmyQ secretion efficiency of 7.66.

In turn, MKTKTLFIFSAILTLSIFAPNETFAQRR showed an AmyQ secretion efficiency of 1.31.

With MKSKWMSGLLLVAVGFSFTQVMSHAGET, the AmyQ secretion efficiency was 6.67.

MKSKGSIMACLILFSFTITRKKRKKTISAFSN had an AmyQ secretion efficiency of 7.38.

Sequence MLKKIALTLCPAIVGSLLFFTAPASPHVS returned an AmyQ secretion efficiency of 8.85.

In turn, MKKRLIGFLVLVPALIMSGITLIEMNKK returned an AmyQ secretion efficiency of 6.01.

Take MFKKPTISLLIIFLLASAVLAKPIEAHTV: the AmyQ secretion efficiency was 2.38.

Sequence MAIIIAIIAAVIVIAALITFNVENASPG showed an AmyQ secretion efficiency of 8.68.

Regarding MKWMCSICCAAVLLAGGAPQAEAV, the AmyQ secretion efficiency is 2.41.

Sequence MKKKQVMLALTAAAGLGLTALHSAPAAKHAPL had an AmyQ secretion efficiency of 4.9.

MTMLRKIIGWILLLCIIPLFAFTVIASNKEV registered an AmyQ secretion efficiency of 5.99.

In turn, MKTKTLFIFSAILTLSIFAPNESFAQTA returned an AmyQ secretion efficiency of 2.17.

Regarding MRGKSAVLLSLIMLIAGFLIDFSFQM, the AmyQ secretion efficiency is 7.67.

MNIKKFAKQATVLTFTTALLAGGATQAFAATE: the AmyQ secretion efficiency was 1.07.

In turn, MRGKSAVLLSLIMLIAGFLQQSFSFQM gave an AmyQ secretion efficiency of 7.38.

As for MTMLRKIIGWILLLCIIKKRRRRVIASGKEV, the AmyQ secretion efficiency stood at 7.19.

With MKKLIMALVILGALGTSYISADSS, the AmyQ secretion efficiency was 6.77 and 6.15.

In turn, MKKQIITATTAVVLGSTLFADDEASAQSI displayed an AmyQ secretion efficiency of 2.17.

The sequence MFTFSGSMFLVGLSAALMSISLFSATASAAST registered an AmyQ secretion efficiency of 1.64.

Sequence MKVPKTMLLSTAAGLLLSLTATSDSAHYV had an AmyQ secretion efficiency of 6.94.

MPYLKRVLLLLVTGLFMSLFAVTATASAQTD: the AmyQ secretion efficiency amounted to 1.91.

MKKWMITIAMLILAGIALFVFIFSPLKSHKT yielded an AmyQ secretion efficiency of 7.63.

In the case of MTKRGIQAFAGGIILATAVLAAVFRLTTFDQAAAV, the AmyQ secretion efficiency amounted to 5.37.

As to MRKKRVITCVMAASLTLGSLLPAGYVSAKED, the AmyQ secretion efficiency was determined as 3.76.

For MTMLRKIIGWILLLCIIPLFAFTVIHSGKEV, the AmyQ secretion efficiency was 6.94.

In turn, MKLAKRVSALTPSTTLAITYKAKEL gave an AmyQ secretion efficiency of 6.96.

MKKIMSAFVGMVLLTIFCKKRKRRASAAYD gave an AmyQ secretion efficiency of 7.21.

As for MGLGKKLSVAVAASFMSLSISLPGGPAVQAAEG, the AmyQ secretion efficiency stood at 1.61.

As for MRIFKKTYSQQGQTFLIATVNVNTAHAAID, the AmyQ secretion efficiency turned out to be 8.8.

MSTGILAAGLTASAIVGTTLVVTPAEAATI had an AmyQ secretion efficiency of 4.73.

The sequence MTTTIAWFLPLVCVLLISGWLAPAASASAQTT displayed an AmyQ secretion efficiency of 2.38.

Sequence MKKRLIGFLVLVPALIMSGITLIEARKK displayed an AmyQ secretion efficiency of 7.62.

In turn, MRPVFPLILSAVLFLSCFFGARQTEASLSKR had an AmyQ secretion efficiency of 3.68.

Sequence MNFKKTVVSALSISALALKKRGVASAHEI had an AmyQ secretion efficiency of 6.98.

The sequence MNIKKFAKQATVLTFTTALLAGGATQAFAKET returned an AmyQ secretion efficiency of 3.3.

In the case of MGRFLIGAGVAAVILSGWFIADHQTHSQEM, the AmyQ secretion efficiency was 6.17.

Sequence “MTKKAWFLPLVCVLLIVIALIFSFASGWLAPAASASAQTT” displayed an AmyQ secretion efficiency of 2.12.

Sequence MLCVMMLLFSAIASAQAKDQ returned an AmyQ secretion efficiency of 6.18.

In turn, MRSYIKVLTMCFLGLILFVPTALCDNS showed an AmyQ secretion efficiency of 3.89.

The sequence MKRITINIITMFIAAAVIEEDEEAEAAEK gave an AmyQ secretion efficiency of 5.79.

In the case of MRRSLALCGLALTLAPCAQAAEP, the AmyQ secretion efficiency came to 2.27.

Sequence MKKLLAAGIIGLLTVSIASPSFHAEK yielded an AmyQ secretion efficiency of 6.26.

MSGTIFFGPIILAFILFAGAIAIPS gave an AmyQ secretion efficiency of 6.8.

MKKIVIILFMFILVMSSGFSQFQPSTVFAADK displayed an AmyQ secretion efficiency of 3.08.

With MTKKAWFLPLVCVLLISGWLAPAASASPQTT, the AmyQ secretion efficiency turned out to be 2.48.

Sequence MLKKIALTLCPAIVGSLLAPASAHVS registered an AmyQ secretion efficiency of 4.32.

The sequence MKWMCSICCAAVLLAGESAQAEAV gave an AmyQ secretion efficiency of 3.16.

As for MKKVLMAFIICLSLILSVLAAPPSGAKPESV, the AmyQ secretion efficiency came to 4.65.

In turn, MKWMCSICCAAVLLAGGACQAEAV came in with an AmyQ secretion efficiency of 3.36.

With MIFTIVVGFLSVLGLAAVFPLTAQAEKA, the AmyQ secretion efficiency came to 2.34.

Regarding MKKWIYVVLVLSIAGIGGFSYHAASS, the AmyQ secretion efficiency stood at 7.41.

For the sequence MKKKQVLALTAAAGLGLTALHSAPAAKAAPL, the AmyQ secretion efficiency is 2.4.

Sequence MKKIVSILFMFGLVMGFSQFQPSTVFAASD came in with an AmyQ secretion efficiency of 1.84.

In turn, MKRLLSTLLIGIMLLTFAPSAFGKQD displayed an AmyQ secretion efficiency of 1.17.

The sequence MRNLTKTSLLLAGLCTAAQMVFVTHASSEES came in with an AmyQ secretion efficiency of 4.13.

In turn, MKLKKRVSMFLVALTMCGGLFVTAAKAVKT gave an AmyQ secretion efficiency of 4.92.

MKKSQYFIVFICFFVLFSVHPIAAAAASS gave an AmyQ secretion efficiency of 2.35.

In turn, MKVPKTMLLSTAAGLLLSLRRKKRKVSAHYV had an AmyQ secretion efficiency of 6.33.

As to MKLAKRTSALTPSTTLAITAKAKEL, the AmyQ secretion efficiency was found to be 6.93.

Turning to MRKSLITLGLASVIGTSSFLIPFTKASAETL, the AmyQ secretion efficiency was 2.6.

Take MSGSRVITCVMAASLTLGSLLPAGYASAKED: the AmyQ secretion efficiency was determined as 3.72.

On to MMKKLFHSTLIVLLFFSFFGVRKKRRKIHAKKQ, for which the AmyQ secretion efficiency was 6.23.

MRNRRKTSLLLAGLCTAAQMVFVTHASAEES showed an AmyQ secretion efficiency of 3.33.

For MKTLRTLCVLMILSGVIFFGLKDIDAKDI, the AmyQ secretion efficiency is 6.44.

The sequence MKKWIYVVLVLSIAGIGGFSVHGASS returned an AmyQ secretion efficiency of 7.27.

MKRSISRKITCLLITLLTMGGMIASPASAAGT had an AmyQ secretion efficiency of 2.01.
